The values below come from paper PMC2729916 (Nature, 2009).

Common to all, as to assay: far-Western, overlay or dot blot
For assay [1], the target named is T1, E. coli UvrC (E. coli, UniProt P0A8G0 1-610).
T1 sequence (looked up): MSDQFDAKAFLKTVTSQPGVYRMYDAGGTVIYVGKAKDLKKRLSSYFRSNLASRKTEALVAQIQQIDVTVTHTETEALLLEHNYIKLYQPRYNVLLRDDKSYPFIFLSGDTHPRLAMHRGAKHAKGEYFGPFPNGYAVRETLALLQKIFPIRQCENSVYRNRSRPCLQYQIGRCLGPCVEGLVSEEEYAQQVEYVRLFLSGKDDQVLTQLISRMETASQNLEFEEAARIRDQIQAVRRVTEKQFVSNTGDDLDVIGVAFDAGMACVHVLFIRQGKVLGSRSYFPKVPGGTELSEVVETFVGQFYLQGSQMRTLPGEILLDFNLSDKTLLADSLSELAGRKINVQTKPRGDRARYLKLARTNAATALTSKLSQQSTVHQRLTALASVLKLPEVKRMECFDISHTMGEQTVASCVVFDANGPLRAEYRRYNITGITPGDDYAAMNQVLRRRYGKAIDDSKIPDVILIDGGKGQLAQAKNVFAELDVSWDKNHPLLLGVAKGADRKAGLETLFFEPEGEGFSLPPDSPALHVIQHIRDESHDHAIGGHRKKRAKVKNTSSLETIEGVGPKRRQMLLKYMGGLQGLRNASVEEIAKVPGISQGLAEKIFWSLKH

Assay [2] concerns the target T2, E. coli UvrA (E. coli, UniProt P0A698 1-940).
T2 sequence (looked up): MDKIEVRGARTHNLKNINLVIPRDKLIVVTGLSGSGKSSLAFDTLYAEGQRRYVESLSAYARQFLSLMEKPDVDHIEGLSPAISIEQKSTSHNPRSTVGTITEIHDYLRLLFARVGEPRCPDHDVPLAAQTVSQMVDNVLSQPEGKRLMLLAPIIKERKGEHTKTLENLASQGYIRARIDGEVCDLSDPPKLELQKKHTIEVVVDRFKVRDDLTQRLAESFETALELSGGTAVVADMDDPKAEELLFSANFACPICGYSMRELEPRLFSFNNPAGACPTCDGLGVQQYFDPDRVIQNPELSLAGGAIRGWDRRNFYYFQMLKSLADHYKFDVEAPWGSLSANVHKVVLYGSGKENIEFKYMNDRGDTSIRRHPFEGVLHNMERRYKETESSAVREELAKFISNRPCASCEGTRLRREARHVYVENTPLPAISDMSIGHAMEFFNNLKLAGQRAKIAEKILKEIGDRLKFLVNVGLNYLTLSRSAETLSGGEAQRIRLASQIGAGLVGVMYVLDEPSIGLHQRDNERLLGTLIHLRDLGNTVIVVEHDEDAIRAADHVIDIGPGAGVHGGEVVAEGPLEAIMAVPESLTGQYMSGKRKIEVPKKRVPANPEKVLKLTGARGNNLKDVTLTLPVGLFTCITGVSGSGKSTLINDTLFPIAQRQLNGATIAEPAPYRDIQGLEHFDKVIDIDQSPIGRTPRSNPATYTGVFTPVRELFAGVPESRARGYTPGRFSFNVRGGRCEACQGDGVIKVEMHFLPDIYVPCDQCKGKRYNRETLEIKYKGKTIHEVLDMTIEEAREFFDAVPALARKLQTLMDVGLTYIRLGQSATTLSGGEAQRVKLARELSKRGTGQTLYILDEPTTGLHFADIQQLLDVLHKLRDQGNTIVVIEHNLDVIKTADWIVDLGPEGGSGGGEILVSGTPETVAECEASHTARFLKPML

For assay [3], the target named is T3, FLAG-UvrA (E. coli) (E. coli, UniProt P0A698 1-940).
T3 sequence (looked up): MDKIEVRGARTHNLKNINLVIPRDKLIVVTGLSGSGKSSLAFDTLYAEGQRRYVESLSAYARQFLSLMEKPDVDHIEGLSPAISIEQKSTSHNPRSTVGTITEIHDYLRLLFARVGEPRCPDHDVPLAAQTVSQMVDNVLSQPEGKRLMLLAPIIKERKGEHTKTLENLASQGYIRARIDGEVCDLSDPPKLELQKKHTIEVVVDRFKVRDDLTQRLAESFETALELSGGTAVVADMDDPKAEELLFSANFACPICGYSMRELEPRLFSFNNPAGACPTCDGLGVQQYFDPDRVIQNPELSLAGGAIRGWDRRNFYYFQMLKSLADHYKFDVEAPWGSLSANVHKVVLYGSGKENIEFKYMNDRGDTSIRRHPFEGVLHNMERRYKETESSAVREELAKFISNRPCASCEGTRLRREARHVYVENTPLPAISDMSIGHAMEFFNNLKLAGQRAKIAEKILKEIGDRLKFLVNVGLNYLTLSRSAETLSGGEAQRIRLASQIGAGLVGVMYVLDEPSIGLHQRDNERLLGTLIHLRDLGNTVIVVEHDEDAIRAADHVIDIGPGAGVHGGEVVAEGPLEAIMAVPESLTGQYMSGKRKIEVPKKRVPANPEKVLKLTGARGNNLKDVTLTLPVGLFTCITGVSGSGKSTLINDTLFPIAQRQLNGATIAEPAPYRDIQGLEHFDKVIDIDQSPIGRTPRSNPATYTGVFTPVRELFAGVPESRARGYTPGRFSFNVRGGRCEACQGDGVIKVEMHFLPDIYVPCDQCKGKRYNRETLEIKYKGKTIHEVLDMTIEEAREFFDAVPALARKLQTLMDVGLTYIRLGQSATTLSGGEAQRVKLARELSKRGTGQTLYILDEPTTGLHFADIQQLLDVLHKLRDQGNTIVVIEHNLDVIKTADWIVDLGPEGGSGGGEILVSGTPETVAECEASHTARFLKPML

B1: FLAG-eAtl (E. coli alkyltransferase-like protein) (natural protein, UniProt P0AFP2 1-129, looked up)
chain: MLVSCAMRLHSGVFPDYAEKLPQEEKMEKEDSFPQRVWQIVAAIPEGYVTTYGDVAKLAGSPRAARQVGGVLKRLPEGSTLPWHRVVNRHGTISLTGPDLQRQRQALLAEGVMVSGSGQIDLQRYRWNY
On to B1, for which the binding result in assay [1] and in assay [2] was “binds” in each case.

B2: S. pombe Atl1 (alkyltransferase-like protein 1) (natural protein)
chain: MRMDEFYTKVYDAVCEIPYGKVSTYGEIARYVGMPSYARQVGQAMKHLHPETHVPWHRVINSRGTISKRDISAGEQRQKDRLEEEGVEIYQTSLGEYKLNLPEYMWKP
Turning to B2, in assay [3], the binding result is listed as “binds”.
